Results reported in IntAct's records for PubMed 23063561.

B1: 1-phosphatidylinositol 4,5-bisphosphate phosphodiesterase gamma-1 (Homo sapiens), P19174 (parent)
chain: MAGAASPCANGCGPGAPSDAEVLHLCRSLEVGTVMTLFYSKKSQRPERKTFQVKLETRQITWSRGADKIEGAIDIREIKEIRPGKTSRDFDRYQEDPAFRPDQSHCFVILYGMEFRLKTLSLQATSEDEVNMWIKGLTWLMEDTLQAPTPLQIERWLRKQFYSVDRNREDRISAKDLKNMLSQVNYRVPNMRFLRERLTDLEQRSGDITYGQFAQLYRSLMYSAQKTMDLPFLEASTLRAGERPELCRVSLPEFQQFLLDYQGELWAVDRLQVQEFMLSFLRDPLREIEEPYFFLDEFVTFLFSKENSVWNSQLDAVCPDTMNNPLSHYWISSSHNTYLTGDQFSSESSLEAYARCLRMGCRCIELDCWDGPDGMPVIYHGHTLTTKIKFSDVLHTIKEHAFVASEYPVILSIEDHCSIAQQRNMAQYFKKVLGDTLLTKPVEISADGLPSPNQLKRKILIKHKKLAEGSAYEEVPTSMMYSENDISNSIKNGILYLEDPVNHEWYPHYFVLTSSKIYYSEETSSDQGNEDEEEPKEVSSSTELHSNEKWFHGKLGAGRDGRHIAERLLTEYCIETGAPDGSFLVRESETFVGDYTLSFWRNGKVQHCRIHSRQDAGTPKFFLTDNLVFDSLYDLITHYQQVPLRCNEFEMRLSEPVPQTNAHESKEWYHASLTRAQAEHMLMRVPRDGAFLVRKRNEPNSYAISFRAEGKIKHCRVQQEGQTVMLGNSEFDSLVDLISYYEKHPLYRKMKLRYPINEEALEKIGTAEPDYGALYEGRNPGFYVEANPMPTFKCAVKALFDYKAQREDELTFIKSAIIQNVEKQEGGWWRGDYGGKKQLWFPSNYVEEMVNPVALEPEREHLDENSPLGDLLRGVLDVPACQIAIRPEGKNNRLFVFSISMASVAHWSLDVAADSQEELQDWVKKIREVAQTADARLTEGKIMERRKKIALELSELVVYCRPVPFDEEKIGTERACYRDMSSFPETKAEKYVNKAKGKKFLQYNRLQLSRIYPKGQRLDSSNYDPLPMWICGSQLVALNFQTPDKPMQMNQALFMTGRHCGYVLQPSTMRDEAFDPFDKSSLRGLEPCAISIEVLGARHLPKNGRGIVCPFVEIEVAGAEYDSTKQKTEFVVDNGLNPVWPAKPFHFQISNPEFAFLRFVVYEEDMFSDQNFLAQATFPVKGLKTGYRAVPLKNNYSEDLELASLLIKIDIFPAKENGDLSPFSGTSLRERGSDASGQLFHGRAREGSFESRYQQPFEDFRISQEHLADHFDSRERRAPRRTRVNGDNRL

Variants of: B1
Details: with fgfr1_human FGFR1, P11362
Chain of fgfr1_human FGFR1, P11362 (P11362 whole entry, looked up): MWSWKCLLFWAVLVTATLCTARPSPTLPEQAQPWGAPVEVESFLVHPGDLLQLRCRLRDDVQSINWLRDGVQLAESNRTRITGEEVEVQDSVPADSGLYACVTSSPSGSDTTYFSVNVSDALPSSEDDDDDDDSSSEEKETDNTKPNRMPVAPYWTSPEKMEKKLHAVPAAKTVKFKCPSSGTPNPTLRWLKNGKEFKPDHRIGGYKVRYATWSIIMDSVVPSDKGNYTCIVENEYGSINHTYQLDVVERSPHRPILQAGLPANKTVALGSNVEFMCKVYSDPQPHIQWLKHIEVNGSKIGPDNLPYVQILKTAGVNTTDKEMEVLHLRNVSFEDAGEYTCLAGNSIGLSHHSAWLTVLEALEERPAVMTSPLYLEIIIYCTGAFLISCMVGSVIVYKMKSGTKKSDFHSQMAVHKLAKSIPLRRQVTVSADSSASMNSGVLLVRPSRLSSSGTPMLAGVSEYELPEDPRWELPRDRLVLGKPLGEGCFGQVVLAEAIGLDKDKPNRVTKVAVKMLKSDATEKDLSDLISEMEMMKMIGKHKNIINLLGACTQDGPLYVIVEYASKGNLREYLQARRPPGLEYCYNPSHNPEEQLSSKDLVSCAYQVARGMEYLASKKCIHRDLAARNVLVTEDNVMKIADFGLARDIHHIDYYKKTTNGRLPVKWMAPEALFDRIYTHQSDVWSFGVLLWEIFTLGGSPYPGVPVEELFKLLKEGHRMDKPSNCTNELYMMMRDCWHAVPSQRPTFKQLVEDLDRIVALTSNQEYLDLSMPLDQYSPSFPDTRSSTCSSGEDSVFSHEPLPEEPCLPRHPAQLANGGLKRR

effect of a mutation on the interaction	Variant
disrupting interaction strength	R586L

Variants of: B1
Details: with fgfr1_human FGFR1, P11362
Remark: another data set of the same source

effect of a mutation on the interaction	Variant
increasing interaction strength	Y783F
